Test results as given in patent US20150165065A1 (AVIDBIOTICS, published 2015).
Numbering of substitutions follows the chain as printed.

B1: M13 phage pKK106 displaying wild type MICA α3 domain fused to pIII (other)
chain: TVPPMVNVTRSEASEGNITVTCRASGFYPWNITLSWRQDGVSLSHDTQQWGDVLPDGNGTYQTWVATRICQGEEQRFTCYMEHSGNHSTHPVPSGK
notes: also called WT; not shown: C-terminal portion of M13 gene III protein, fused at codon position 198
B2: M13 phage pKK96 displaying MICA α3 domain with loop 1 insert 5.1 (designed binder)
chain: B1 chain with R10V, S11T, E12R, A13G, S14D, E15T, G16F, N17T, I18Q, T19S
notes: also called 1-5.1; not shown: C-terminal portion of M13 gene III protein, fused at codon position 198
B3: M13 phage pKK101 displaying MICA α3 domain with loop 1 insert 3.3sp (designed binder)
chain: TVPPMVNVTSGGSGGGSRVPRGDSDLTSGGSGGGVTCRASGFYPWNITLSWRQDGVSLSHDTQQWGDVLPDGNGTYQTWVATRICQGEEQRFTCYMEHSGNHSTHPVPSGK
notes: also called 1-3.3sp; not shown: C-terminal portion of M13 gene III protein, fused at codon position 198
B4: M13 phage pKK102 displaying MICA α3 domain with loop 1 insert 5.1sp (designed binder)
chain: B3 chain with R18V, V19T, P20R, R21G, G22D, D23T, S24F, D25T, L26Q, T27S
notes: also called 1-5.1sp; not shown: C-terminal portion of M13 gene III protein, fused at codon position 198
B5: M13 phage pKK103 displaying MICA α3 domain with loop 1 insert 5.3sp (designed binder)
chain: B3 chain with R18H, V19L, P20A, S24D, D25L, L26T, T27Y
notes: also called 1-5.3sp; not shown: C-terminal portion of M13 gene III protein, fused at codon position 198
B6: soluble MICA generated by pSW273 (wild type loops, negative control) (ligand)
chain: HHHHHHEPHSLRYNLTVLSWDGSVQSGFLTEVHLDGQPFLRCDRQKCRAKPQGQWAEDVLGNKTWDRETRDLTGNGKDLRMTLAHIKDQKEGLHSLQEIRVCEIHEDNSTRSSQHFYYDGELFLSQNLETEEWTMPQSSRAQTLAMNVRNFLKEDAMKTKTHYHAMHADCLQELRRYLKSGVVLRRTVPPMVNVTRSEASEGNITVTCRASGFYPWNITLSWRQDGVSLSHDTQQWGDVLPDGNGTYQTWVATRICQGEEQRFTCYMEHSGNHSTHPVPSGK
notes: Secreted by 293T cells; six His between signal peptide and residue 1; made from pSW267 (Glu125); also called WT
B7: M13 phage pKK136 displaying MICA α3 domain with loop 1 insert 5.1sp and loop 3 insert 3.2sp (designed binder)
chain: TVPPMVNVTSGGSGGGSVTRGDTFTQSSGGSGGGVTCRASGFYPWNITLSWRQDGVSLSHDTQQWGDVLPDGNGTYQTWVATRISGGSGGGSTSRGDHPRTQSGGSGGGCYMEHSGNHSTHPVPSGK
notes: also called 1-5.1sp/3-3.2sp; not shown: C-terminal portion of M13 gene III protein, fused at codon position 198
B8: M13 phage pKK139 displaying MICA α3 domain with loop 1 insert 5.1sp and loop 3 insert 5.1spNH (designed binder)
chain: B7 chain with T93V, S94T, H98T, P99F, R100T, T101Q, Q102S
notes: also called 1-5.1sp/3-5.1spNH; not shown: C-terminal portion of M13 gene III protein, fused at codon position 198
B9: M13 phage pKK138 displaying MICA α3 domain with loop 1 insert 5.1sp and loop 3 insert 5.3sp (designed binder)
chain: B7 chain with T93H, S94L, R95A, G96R, D97G, H98D, P99D, R100L, Q102Y
notes: also called 1-5.1sp/3-5.3sp; not shown: C-terminal portion of M13 gene III protein, fused at codon position 198

Experiments:
integrin αVβ3 [1] = target: T1, integrin αVβ3 (UniProt P06756 31-992; P05106 27-718); assay: phage ELISA, coated integrin, anti-M13-HRP
T1 construct: Coated on the ELISA plate
Experimental: (§1) The phage vectors were independently transformed into NEBαF′tet competent E. coli cells. Phages produced by the transformed cells were tittered and their concentrations adjusted by dilution to 10¹³ per ml. The ability of the soluble MICA molecules in each of the phage preparations was assayed by an ELISA using the intended target proteins, integrin αVβ3 or αVβ5, as capture agents on the ELISA plate. After the respective integrins were adhered to the bottoms of the wells of the ELISA plate, the wells were washed and blocked, as well known in the field. Each sample (100 μl) of phage preparation was added to wells containing αVβ3 or αVβ5, incubated and washed. The phages captured by the integrins were detected by HRP-conjugated antibody to the M13 phage coat developed with Ultra TMB-ELISA substrate and the optical densities read.

integrin αVβ5 [2] = target: T2, integrin αVβ5 (UniProt P06756 31-992; P18084 24-719); assay: phage ELISA, coated integrin, anti-M13-HRP
T2 construct: Coated on the ELISA plate
Experimental: as §1

integrin αVβ3 [3] = target: T1, integrin αVβ3; assay: phage ELISA, coated integrin, anti-M13-HRP; remark: listed apart in the source
Experimental: (§2) The ELISA assays of the integrin target-binding of M13 phages displaying α3 domains with binding peptide inserts grafted into more than one loop were performed as follows. After the respective integrins were adhered to the bottoms of the wells of the ELISA plate, the wells were washed and blocked. Each sample (100 μl) of phage preparation was added to wells containing αVβ3 or αVβ5, incubated and washed. The phages captured by the integrins were detected by HRP-conjugated antibody to the M13 phage coat developed with Ultra TMB-ELISA substrate and the optical densities read.

integrin αVβ5 [4] = target: T2, integrin αVβ5; assay: phage ELISA, coated integrin, anti-M13-HRP; remark: listed apart in the source
Experimental: as §2

integrin αVβ3 [5] = target: T1, integrin αVβ3; assay: ELISA, coated integrin, anti-MICA-HRP
Experimental: (§3) ELISA assays of the integrin target-binding of soluble MICA molecules generated from pKK128-131 were performed as follows. After the respective integrins were adhered to the bottoms of the wells of the ELISA plate, the wells were washed and blocked. Each sample (100 μl) of culture supernatant was added to wells containing αVβ3 or αVβ5, incubated and washed. The soluble MICA molecules captured by the integrins were detected by HRP-conjugated antibody to human MICA developed with Ultra TMB-ELISA substrate and the optical densities read. The quantity of soluble MICA in each sample was determined by the MICA-specific ELISA.

integrin αVβ5 [6] = target: T2, integrin αVβ5; assay: ELISA, coated integrin, anti-MICA-HRP
Experimental: as §3

integrin αVβ3 [7] = target: T1, integrin αVβ3; assay: ELISA, coated integrin, anti-MICA-HRP; remark: listed apart in the source
Experimental: (§4) The ability of the soluble MICA molecules in each of the concentrated supernatants to bind target molecules was assayed by an ELISA using the intended target proteins, integrin αVβ3 or αVβ5, as capture agents on the ELISA plate. After the respective integrins were adhered to the bottoms of the wells of the ELISA plate, the wells were washed and blocked, as well known in the field. Each sample (100 μl) of soluble MICA produced and secreted by 293T cells was added to wells containing αVβ3 or αVβ5, incubated and washed. The soluble MICA molecules captured by the integrins were detected by HRP-conjugated antibody to human MICA developed with Ultra TMB-ELISA substrate and the optical densities read. The quantity of soluble MICA in each sample was determined by the MICA-specific ELISA. […] The ELISA signal from a non-binding, negative control MICA (generated by pSW273) was subtracted from each integrin binding signal.

integrin αVβ5 [8] = target: T2, integrin αVβ5; assay: ELISA, coated integrin, anti-MICA-HRP; remark: listed apart in the source
Experimental: as §4

T2 sequence (P06756 31-992, chain 1 of 2): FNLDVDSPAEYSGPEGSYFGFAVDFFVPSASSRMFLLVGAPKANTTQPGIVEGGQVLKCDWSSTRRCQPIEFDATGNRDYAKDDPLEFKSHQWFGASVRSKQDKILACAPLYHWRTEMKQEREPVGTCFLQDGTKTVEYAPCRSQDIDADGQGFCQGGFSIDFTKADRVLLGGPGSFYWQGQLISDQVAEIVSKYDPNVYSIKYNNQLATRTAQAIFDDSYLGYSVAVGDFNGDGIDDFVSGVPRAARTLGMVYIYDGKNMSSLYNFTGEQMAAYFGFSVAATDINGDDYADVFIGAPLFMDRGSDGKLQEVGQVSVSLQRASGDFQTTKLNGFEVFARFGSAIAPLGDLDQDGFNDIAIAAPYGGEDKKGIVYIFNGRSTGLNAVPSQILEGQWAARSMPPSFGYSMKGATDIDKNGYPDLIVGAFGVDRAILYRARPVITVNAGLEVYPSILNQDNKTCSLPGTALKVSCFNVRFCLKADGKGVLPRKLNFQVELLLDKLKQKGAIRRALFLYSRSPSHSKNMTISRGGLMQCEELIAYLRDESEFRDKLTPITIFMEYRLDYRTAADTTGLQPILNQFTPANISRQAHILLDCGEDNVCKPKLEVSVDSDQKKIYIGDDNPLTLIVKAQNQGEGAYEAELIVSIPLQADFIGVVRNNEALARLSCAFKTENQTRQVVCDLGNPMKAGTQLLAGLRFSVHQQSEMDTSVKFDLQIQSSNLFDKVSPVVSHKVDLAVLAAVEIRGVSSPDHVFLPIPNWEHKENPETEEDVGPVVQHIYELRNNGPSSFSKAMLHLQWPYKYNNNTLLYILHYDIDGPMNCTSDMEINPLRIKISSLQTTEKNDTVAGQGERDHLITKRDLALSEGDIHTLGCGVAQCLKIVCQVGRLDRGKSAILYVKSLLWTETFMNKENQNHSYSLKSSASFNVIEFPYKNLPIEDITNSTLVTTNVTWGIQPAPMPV
T2 sequence (P18084 24-719, chain 2 of 2): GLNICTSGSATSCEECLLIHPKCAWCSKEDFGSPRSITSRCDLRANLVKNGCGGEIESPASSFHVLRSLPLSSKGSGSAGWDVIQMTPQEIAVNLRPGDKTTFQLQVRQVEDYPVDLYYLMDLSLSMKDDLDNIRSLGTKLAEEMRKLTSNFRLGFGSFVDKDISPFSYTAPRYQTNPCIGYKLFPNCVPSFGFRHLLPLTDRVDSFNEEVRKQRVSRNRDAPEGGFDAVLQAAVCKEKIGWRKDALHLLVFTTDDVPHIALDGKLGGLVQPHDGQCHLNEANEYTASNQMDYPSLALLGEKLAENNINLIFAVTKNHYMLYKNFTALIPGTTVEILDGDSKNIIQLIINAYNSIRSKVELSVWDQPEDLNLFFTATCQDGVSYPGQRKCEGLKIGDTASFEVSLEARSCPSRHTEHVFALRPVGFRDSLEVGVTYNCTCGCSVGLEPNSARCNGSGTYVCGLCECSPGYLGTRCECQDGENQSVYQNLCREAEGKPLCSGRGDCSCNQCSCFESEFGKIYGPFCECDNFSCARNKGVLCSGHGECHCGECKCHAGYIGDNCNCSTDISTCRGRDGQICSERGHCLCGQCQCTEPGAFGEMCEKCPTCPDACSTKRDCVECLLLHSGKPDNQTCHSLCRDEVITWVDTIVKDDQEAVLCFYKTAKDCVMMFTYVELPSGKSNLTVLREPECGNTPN
T1 sequence (P06756 31-992, chain 1 of 2): as the sequence (P06756 31-992, chain 1 of 2) above
T1 sequence (P05106 27-718, chain 2 of 2): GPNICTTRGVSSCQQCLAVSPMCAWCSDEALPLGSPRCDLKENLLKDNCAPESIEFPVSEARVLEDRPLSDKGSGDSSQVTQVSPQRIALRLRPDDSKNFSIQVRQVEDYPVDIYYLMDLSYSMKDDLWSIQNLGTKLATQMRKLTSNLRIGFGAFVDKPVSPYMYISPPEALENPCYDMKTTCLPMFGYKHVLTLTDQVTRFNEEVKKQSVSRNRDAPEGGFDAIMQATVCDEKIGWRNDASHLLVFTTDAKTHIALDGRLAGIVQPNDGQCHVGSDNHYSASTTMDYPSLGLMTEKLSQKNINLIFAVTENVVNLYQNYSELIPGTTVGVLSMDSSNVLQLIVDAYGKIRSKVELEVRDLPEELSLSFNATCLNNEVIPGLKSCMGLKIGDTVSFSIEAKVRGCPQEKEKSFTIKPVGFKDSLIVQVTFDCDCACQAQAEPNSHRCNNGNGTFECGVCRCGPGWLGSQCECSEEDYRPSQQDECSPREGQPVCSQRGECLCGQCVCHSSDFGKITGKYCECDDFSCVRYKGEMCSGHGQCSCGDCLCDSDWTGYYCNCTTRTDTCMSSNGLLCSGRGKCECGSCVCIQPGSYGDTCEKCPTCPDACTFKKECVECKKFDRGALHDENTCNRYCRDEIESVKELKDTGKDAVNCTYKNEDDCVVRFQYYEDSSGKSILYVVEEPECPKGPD

Row | Binder | αvβ3 signal (integrin αVβ3 [1]) | αvβ5 signal (integrin αVβ5 [2]) | αvβ3 signal (integrin αVβ3 [3]) | αvβ5 signal (integrin αVβ5 [4]) | other results
1 | B1 | 0 OD | 0 OD | 0 OD | 0 OD | 
2 | B2 | 1.64 OD | 2.42 OD |  |  | 
3 | B3 | 1.49 OD | 1.23 OD |  |  | 
4 | B4 | 1.02 OD | 0.771 OD | 1.45 OD | 1.5 OD | 
5 | B5 | 0.688 OD | 0.491 OD | 0.587 OD | 0.814 OD | 
6 | B6 |  |  |  |  | αvβ3 signal (integrin αVβ3 [5]): 0.099 OD; αvβ3 signal/ng (integrin αVβ3 [5]): 6.73 signal/ng MICA; αvβ5 signal (integrin αVβ5 [6]): 0.1 OD; αvβ5 signal/ng (integrin αVβ5 [6]): 6.8 signal/ng MICA; binding result (integrin αVβ3 [7]): no binding; binding result (integrin αVβ5 [8]): no binding
7 | B7 |  |  | 2.46 OD | 4.28 OD | 
8 | B8 |  |  | 2.48 OD | 5.36 OD | 
9 | B9 |  |  | 0.886 OD | 2.75 OD | 
